Data on 1 substance can be found in IntAct's records for PubMed 21858081.

This assay deals with tppc9_human TRAPPC9 (UniProt Q96Q05).
Chain of tppc9_human TRAPPC9 (Q96Q05 whole entry): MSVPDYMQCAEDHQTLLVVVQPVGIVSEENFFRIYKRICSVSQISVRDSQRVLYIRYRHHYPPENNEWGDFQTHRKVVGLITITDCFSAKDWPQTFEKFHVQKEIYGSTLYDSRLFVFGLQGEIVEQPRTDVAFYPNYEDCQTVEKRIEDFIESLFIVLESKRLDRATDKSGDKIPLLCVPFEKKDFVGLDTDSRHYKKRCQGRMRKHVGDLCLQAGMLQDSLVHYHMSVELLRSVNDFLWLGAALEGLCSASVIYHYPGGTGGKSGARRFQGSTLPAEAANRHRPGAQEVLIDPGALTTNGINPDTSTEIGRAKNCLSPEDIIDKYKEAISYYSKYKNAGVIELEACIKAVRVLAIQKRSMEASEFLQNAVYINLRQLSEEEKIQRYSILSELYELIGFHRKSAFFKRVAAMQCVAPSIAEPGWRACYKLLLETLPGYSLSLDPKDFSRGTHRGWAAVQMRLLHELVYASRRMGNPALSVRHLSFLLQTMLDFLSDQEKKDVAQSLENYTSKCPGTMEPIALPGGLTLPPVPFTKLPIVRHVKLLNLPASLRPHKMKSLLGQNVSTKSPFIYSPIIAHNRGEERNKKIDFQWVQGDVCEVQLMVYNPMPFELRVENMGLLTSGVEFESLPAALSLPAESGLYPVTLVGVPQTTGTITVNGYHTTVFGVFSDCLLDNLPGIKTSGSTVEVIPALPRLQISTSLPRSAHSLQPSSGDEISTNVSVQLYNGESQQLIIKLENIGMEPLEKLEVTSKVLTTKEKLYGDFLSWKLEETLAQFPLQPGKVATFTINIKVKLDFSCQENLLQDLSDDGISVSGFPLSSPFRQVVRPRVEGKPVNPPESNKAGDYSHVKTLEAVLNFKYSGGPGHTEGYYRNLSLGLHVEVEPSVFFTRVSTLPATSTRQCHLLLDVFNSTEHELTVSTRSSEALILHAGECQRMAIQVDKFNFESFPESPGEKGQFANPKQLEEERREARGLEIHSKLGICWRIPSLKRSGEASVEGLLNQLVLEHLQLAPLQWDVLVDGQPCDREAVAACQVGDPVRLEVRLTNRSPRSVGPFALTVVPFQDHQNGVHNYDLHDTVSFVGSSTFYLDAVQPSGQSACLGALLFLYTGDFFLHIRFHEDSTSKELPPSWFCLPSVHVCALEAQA

Regarding “Trafficking protein particle complex subunit 2 (Mus musculus) (from UniProt Q9CQP2) D47Y”, the “effect of a mutation on the interaction” value is given as “decreasing interaction strength”.
